Measurements: patent US8790905B2, “Fructosyl peptide oxidase” (Kyowa Medex Co., Ltd, priority 2008, dated 2014)

How the values were obtained:
Assay type in all cases: biochemical, Emericella nidulans KY125
[1] = substrate: N[C@@H](CCCCNCC1(O)OC[C@@H](O)[C@@H](O)[C@@H]1O)C(=O)O; assay: Km values of the fructosyl peptide oxidase FPOX-9 towards each type of substrate; conditions: other: Tris buffer (pH 7.5), 37° C.
Procedure: (§1) Substrate specificity of the novel FPOX-9 obtained in Example 2 to glycated peptides and/or glycated amino acids were measured using the following Reagent 1 to Reagent 3.
(§2) Herein, the FPOX-9 solution used was the one prepared in Example 3.
(§3) As substrates, glycated peptide α-FVH as well as glycated amino acids ε-FK and α-FV were used.
(§4) α-FVH solutions and α-FV solutions were prepared using Tris buffer to obtain each of the following concentrations in Reagent 3: 0, 0.05, 0.1, 0.5, 1, 2, 5, and 10 mmol/L. ε-FK solutions were prepared using Tris buffer to obtain each of the following concentrations in Reagent 3: 0, 1, 2, 5, 10, 20, 40, 50, 80, and 100 mmol/L.
(§5) 170 μL of Reagent 2 was added to 10 μL of Reagent 1, and after the reaction at 37° C. for five minutes, 20 μL of Reagent 3 was added, and the reaction was further continued at 37° C. for five minutes, a total of ten minutes. The absorbance at 546 nm (main wavelength)/800 nm (sub-wavelength) for 0 mmol/L at 5.4 minutes after starting the reaction was defined as A0′ (Abs), and the absorbance at 546 nm (main wavelength)/800 nm (sub-wavelength) for each substrate concentration at 5.4 minutes after starting the reaction was defined as A0^x (Abs), and ΔA0 was calculated according to Equation (I). (Mathematical Expression 1) ΔA0=A0^x−A0′(Abs) (I)
(§6) The absorbance at 546 nm (main wavelength)/800 nm (sub-wavelength) for 0 mmol/L at 6.6 minutes after starting the reaction was defined as As′ (Abs), and the absorbance at 546 nm (main wavelength)/800 nm (sub-wavelength) for each substrate concentration at 6.6 minutes after starting the reaction was defined as As^x (Abs), and ΔAs was calculated according to Equation (II). (Mathematical Expression 2) ΔAs=As^x−As′(Abs) (II)
(§7) The enzyme activity (U/mL) for each substrate concentration was calculated by substituting the obtained ΔA0 and ΔAs total amount of reaction solution (0.2 mL), molar extinction coefficient of TOOS (39,200), reaction time (1.2 minutes), and the light path length of the reaction cuvette (0.5 cm) into Equation (III). […]

[2] = substrate: CC(C)[C@H](NCC1(O)OC[C@@H](O)[C@@H](O)[C@@H]1O)C(=O)N[C@@H](Cc1c[nH]cn1)C(=O)O; assay: as above; conditions: other: Tris buffer (pH 7.5), 37° C.
Procedure: as §1, §2, §3, §4, §5, §6, §7

[3] = substrate: CC(C)[C@H](NCC1(O)OC[C@@H](O)[C@@H](O)[C@@H]1O)C(=O)O; assay: as above; conditions: other: Tris buffer (pH 7.5), 37° C.
Procedure: as §1, §2, §3, §4, §5, §6, §7

[4] = substrate: N[C@@H](CCCCNCC1(O)OC[C@@H](O)[C@@H](O)[C@@H]1O)C(=O)O; assay: Km values of the fructosyl peptide oxidase FPOX-15 towards each type of substrate; conditions: 37° C.
Procedure: (§8) The substrate specificity of FPOX-15 obtained in Example 2 to glycated peptides and/or glycated amino acids was measured using the following Reagent 1 to Reagent 3.
(§9) Herein, for the FPOX-15 solution, a solution produced by four-fold dilution of the solution obtained in Example 3 was used.
as §3
(§10) α-FVH solutions and α-FV solutions were prepared using distilled water to obtain the following concentrations in Reagent 3: 0, 2, 2.5, 3, and 3.66 mmol/L. ε-FK solution was prepared using distilled water to obtain the following concentrations in Reagent 3: 0, 20, 30, 40, and 50 mmol/L.
as §5, with “150” for “170”, “5” for “10”, “wavelength)/700” for “wavelength)/800”
as §6, with “wavelength)/700” for “wavelength)/800”
(§11) The enzyme activity (U/mL) for each substrate concentration was calculated by substituting the obtained ΔA0 and ΔAs, total amount of reaction solution (0.2 mL), molar extinction coefficient of EMSE (33,800), reaction time (1.2 minutes), and the light path length of the reaction cuvette (0.5 cm) into Equation (III). (Mathematical Expression 3) Enzyme activity(U/mL)={(ΔAs−ΔA0)×total amount of reaction solution(mL)}/{molar extinction coefficient ε/1000×amount of enzyme solution(mL)×0.5×reaction time(min)×light path length(cm)} (III)
(§12) For each of the substrates α-FVH, ε-FK, and α-FV, a plot was produced with substrate concentration (mmol/L) on the horizontal axis and the corresponding enzyme activity (U/mL) on the vertical axis, and the substrate concentration corresponding to ½ of the maximum enzyme activity was calculated as the Km value (Michaelis constant).

[5] = substrate: CC(C)[C@H](NCC1(O)OC[C@@H](O)[C@@H](O)[C@@H]1O)C(=O)N[C@@H](Cc1c[nH]cn1)C(=O)O; assay: as above; conditions: 37° C.
Procedure: as §8, §9, §3, §10
as §5, with “150” for “170”, “5” for “10”, “wavelength)/700” for “wavelength)/800”
as §6, with “wavelength)/700” for “wavelength)/800”
as §11, §12

[6] = substrate: CC(C)[C@H](NCC1(O)OC[C@@H](O)[C@@H](O)[C@@H]1O)C(=O)O; assay: as above; conditions: 37° C.
Procedure: as §8, §9, §3, §10
as §5, with “150” for “170”, “5” for “10”, “wavelength)/700” for “wavelength)/800”
as §6, with “wavelength)/700” for “wavelength)/800”
as §11, §12

[7] = other: pH 6.0, sodium dihydrogen phosphate, pH 6.0
[8] = other: pH 7.0, sodium dihydrogen phosphate, pH 7.0
[9] = other: pH 8.0, sodium dihydrogen phosphate, pH 8.0

Protein | Km [1] [µM] | Km [2] [µM] | Km [3] [µM] | Km [4, 7] [µM] | Km [4, 8] [µM] | Km [4, 9] [µM] | Km [5, 7] [µM] | Km [5, 8] [µM] | Km [5, 9] [µM] | Km [6, 7] [µM] | Km [6, 8] [µM] | Km [6, 9] [µM]
Emericella nidulans KY125 fructosyl peptide oxidase variant FPOX-9 (Ser71Tyr, Ile94Met, Glu104Lys, Lys109Arg, Phe269Ile), SEQ ID NO: 1 (Aspergillus nidulans; … (protein) MAPRANTKIIVVGGGGTMGSSTALHLLRAGYTPSNITVLDTYPIPSAQSAGYDLNKIMSIRLRNKPDLQLYLEALDMWKNDPLFKPFFHNVGQMDVSSTEEGIKGLRMRYQSLLDAGIGLEKTNFLLESEDEILAKAPHFTREQIKGWKGLFCGDGGWLAAAKAINAIGQFLKEQGVKFGFGGAGTFKKPLFADADEKTCIGVETVDGTKYYADKVVLAAGAWSSTLVDLEEQCVSKAWVFAHIQLTPAEAAAYKNTPVIYDGDYGFFIEPNENGIIKVCDEFPGFTHFKMHQPYGSPVPKPISVPRSHAKHPTDTYPHASEVTIKKAINRFLPRFNDKELFNRAMCWCTDTADANLLVCEHPRWKGFYLATGDSGHSFKLLPNIGKHVVELLEGRLESVFKDAWRWRPGSGDALKSRRAAPAKDLADMPGWRNEAKM | 4000 | 500 | 600 | – | – | – | – | – | – | – | – | –
Emericella nidulans KY125 fructosyl peptide oxidase variant FPOX-15 (FPOX-9 with Met58Phe, Ser59Gly, Gly105Lys, Gly183Glu, Asn272Asp, Pro302Leu), SEQ ID NO: 3 … (protein) MAPRANTKIIVVGGGGTMGSSTALHLLRAGYTPSNITVLDTYPIPSAQSAGYDLNKIFGIRLRNKPDLQLYLEALDMWKNDPLFKPFFHNVGQMDVSSTEEGIKKLRMRYQSLLDAGIGLEKTNFLLESEDEILAKAPHFTREQIKGWKGLFCGDGGWLAAAKAINAIGQFLKEQGVKFGFGEAGTFKKPLFADADEKTCIGVETVDGTKYYADKVVLAAGAWSSTLVDLEEQCVSKAWVFAHIQLTPAEAAAYKNTPVIYDGDYGFFIEPDENGIIKVCDEFPGFTHFKMHQPYGSPVPKLISVPRSHAKHPTDTYPHASEVTIKKAINRFLPRFNDKELFNRAMCWCTDTADANLLVCEHPRWKGFYLATGDSGHSFKLLPNIGKHVVELLEGRLESVFKDAWRWRPGSGDALKSRRAAPAKDLADMPGWRNEAKM | – | – | – | 23200 | 19200 | 9600 | 400 | 500 | 800 | 200 | 300 | 300
